# Results published in publication PMC9854251.
# Substrate: Nc1ncnc2c1ncn2[C@@H]1O[C@H](COP(=O)(O)NCCc2c[nH]c3ccccc23)[C@@H](O)[C@H]1O
# Assay: Steady-state kinetics assay
# Format: biochemical, human
# Conditions: other: steady-state 25 °C, pH 7.2
protein,measurement,setting,value
hHINT2 WT (Homo sapiens) (protein) GNEVAKAQQATPGGAAPTIFSRILDKSLPADILYEDQQCLVFRDVAPQAPVHFLVIPKKPIPRISQAEEEDQQLLGHLLLVAKQTAKAEGLGDGYRLVINDGKLGAQSVYHLHIHVLGGRQLQWPPG,Km,hHINT2 WT,0.91 ± 0.098 µM
same,kcat,hHINT2 WT,5.77 ± 0.34 s⁻¹
same,kcat/Km,hHINT2 WT,6.3e+06 ± 1e+06 M⁻¹ s⁻¹
hHINT2 R99Q (Homo sapiens; R99Q) (protein) GNEVAKAQQATPGGAAPTIFSRILDKSLPADILYEDQQCLVFRDVAPQAPVHFLVIPKKPIPQISQAEEEDQQLLGHLLLVAKQTAKAEGLGDGYRLVINDGKLGAQSVYHLHIHVLGGRQLQWPPG,Km,hHINT2 R99Q,0.84 ± 0.155 µM
same,kcat,hHINT2 R99Q,6.01 ± 0.26 s⁻¹
same,kcat/Km,hHINT2 R99Q,7.2e+06 ± 1.1e+06 M⁻¹ s⁻¹
hHINT2 R99A (Homo sapiens; R99A) (protein) GNEVAKAQQATPGGAAPTIFSRILDKSLPADILYEDQQCLVFRDVAPQAPVHFLVIPKKPIPAISQAEEEDQQLLGHLLLVAKQTAKAEGLGDGYRLVINDGKLGAQSVYHLHIHVLGGRQLQWPPG,Km,hHINT2 R99A,0.683 ± 0.042 µM
same,kcat,hHINT2 R99A,2.65 ± 0.19 s⁻¹
same,kcat/Km,hHINT2 R99A,3.88e+06 ± 810000 M⁻¹ s⁻¹
hHINT1 Q62A (Homo sapiens; Q62A) (protein) MADEIAKAQVARPGGDTIFGKIIRKEIPAKIIFEDDRCLAFHDISPQAPTHFLVIPKKHISAISVAEDDDESLLGHLMIVGKKCAADLGLNKGYRMVVNEGSDGGQSVYHVHLHVLGGRQMHWPPG,Km,hHINT1 Q62A,0.015 ± 0.003 µM
same,kcat,hHINT1 Q62A,0.45 ± 0.02 s⁻¹
same,kcat/Km,hHINT1 Q62A,2.8e+07 ± 4e+06 M⁻¹ s⁻¹
hHINT1 Q62R (Homo sapiens; Q62R) (protein) MADEIAKAQVARPGGDTIFGKIIRKEIPAKIIFEDDRCLAFHDISPQAPTHFLVIPKKHISRISVAEDDDESLLGHLMIVGKKCAADLGLNKGYRMVVNEGSDGGQSVYHVHLHVLGGRQMHWPPG,Km,hHINT1 Q62R,0.136 ± 0.03 µM
same,kcat,hHINT1 Q62R,1.4 ± 0.09 s⁻¹
same,kcat/Km,hHINT1 Q62R,1.1e+07 ± 2.4e+06 M⁻¹ s⁻¹
